Key:
[1] = biological target: T1, full-length cynomolgous DLL3 on HEK293 cells (cynomolgous, UniProt A0A2K5WSR1 27-585); test: flow cytometry, HEK293 cells transfected with full-length cynomolgous DLL3, mAb 10 µg/ml
T1 construct: also called 293 cyno DLL3
T1 sequence: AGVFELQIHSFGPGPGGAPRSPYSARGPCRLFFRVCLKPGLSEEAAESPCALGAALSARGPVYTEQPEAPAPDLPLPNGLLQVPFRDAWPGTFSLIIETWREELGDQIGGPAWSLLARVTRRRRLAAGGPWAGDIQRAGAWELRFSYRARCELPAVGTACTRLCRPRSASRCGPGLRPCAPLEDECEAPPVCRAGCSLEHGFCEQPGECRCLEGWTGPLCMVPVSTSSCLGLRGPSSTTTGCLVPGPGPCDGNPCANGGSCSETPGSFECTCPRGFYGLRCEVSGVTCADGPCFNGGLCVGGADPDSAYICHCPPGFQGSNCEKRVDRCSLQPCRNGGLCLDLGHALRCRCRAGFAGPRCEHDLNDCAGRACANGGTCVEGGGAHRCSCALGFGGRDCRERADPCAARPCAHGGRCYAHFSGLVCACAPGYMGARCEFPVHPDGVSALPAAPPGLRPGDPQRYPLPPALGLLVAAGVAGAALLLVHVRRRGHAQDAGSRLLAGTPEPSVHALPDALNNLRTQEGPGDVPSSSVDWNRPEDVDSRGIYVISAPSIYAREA
Description: (§1) For this purpose, HEK293 cells were transfected with plasmid DNA encoding full-length human, mouse or cynomolgous DLL3 and used in the experiment. Briefly […] transfected HEK293 cells or NCI-H82 primary cells were added in FACS buffer PBS 0.5% BSA to the wells of a 96 well U bottom plate and purified monoclonal added to 10 μg/ml. After 30 minutes incubation at 4° C. the cells were washed 3 times in FACS buffer and incubated with a PE labelled F(ab)2 anti-mouse IgG H and L 2nd stage. After another 30 minutes incubation at 4° C. the cells were washed three times in FACS buffer and analyzed on the flow cytometer. Data are presented at the ratio of the Mean Fluorescent Intensity for the monoclonal divided by the background staining with the 2nd stage.

[2] = biological target: T2, full-length human DLL3 on cells (human, UniProt Q9NYJ7 27-618); test: cell-based or functional assay
T2 sequence: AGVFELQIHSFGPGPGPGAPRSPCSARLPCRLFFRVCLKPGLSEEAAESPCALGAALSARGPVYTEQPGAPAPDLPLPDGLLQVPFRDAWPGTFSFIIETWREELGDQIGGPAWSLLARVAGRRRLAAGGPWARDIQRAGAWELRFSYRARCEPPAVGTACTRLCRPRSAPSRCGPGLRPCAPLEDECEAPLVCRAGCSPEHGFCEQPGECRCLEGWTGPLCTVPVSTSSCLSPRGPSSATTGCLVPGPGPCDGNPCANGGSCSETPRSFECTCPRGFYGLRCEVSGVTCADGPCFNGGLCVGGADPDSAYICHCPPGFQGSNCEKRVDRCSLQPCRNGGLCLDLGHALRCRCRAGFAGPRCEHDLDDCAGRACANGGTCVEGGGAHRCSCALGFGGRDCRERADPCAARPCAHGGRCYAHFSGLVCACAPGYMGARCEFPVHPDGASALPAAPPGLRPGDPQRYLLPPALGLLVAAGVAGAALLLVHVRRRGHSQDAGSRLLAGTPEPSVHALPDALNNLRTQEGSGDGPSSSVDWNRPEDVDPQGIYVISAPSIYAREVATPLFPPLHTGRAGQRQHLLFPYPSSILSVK

[3] = biological target: T2, full-length human DLL3 on cells; test: cell-based or functional assay; remark: listed apart in the source
[4] = biological target: T2, full-length human DLL3 on cells; test: cell-based or functional assay; remark: listed apart in the source
[5] = biological target: T2, full-length human DLL3 on cells; test: flow cytometry, NCI-H82 cells (endogenous human DLL3), mAb 10 µg/ml
Description: as §1

[6] = biological target: T2, full-length human DLL3 on cells; test: flow cytometry, HEK293 cells transfected with full-length human DLL3, mAb 10 µg/ml
Description: as §1

[7] = biological target: T3, full-length mouse DLL3 on HEK293 cells (mouse, UniProt O88516 33-584); test: flow cytometry, HEK293 cells transfected with full-length mouse DLL3, mAb 10 µg/ml
T3 construct: DLL3'; also called 293 mDLL3
T3 sequence: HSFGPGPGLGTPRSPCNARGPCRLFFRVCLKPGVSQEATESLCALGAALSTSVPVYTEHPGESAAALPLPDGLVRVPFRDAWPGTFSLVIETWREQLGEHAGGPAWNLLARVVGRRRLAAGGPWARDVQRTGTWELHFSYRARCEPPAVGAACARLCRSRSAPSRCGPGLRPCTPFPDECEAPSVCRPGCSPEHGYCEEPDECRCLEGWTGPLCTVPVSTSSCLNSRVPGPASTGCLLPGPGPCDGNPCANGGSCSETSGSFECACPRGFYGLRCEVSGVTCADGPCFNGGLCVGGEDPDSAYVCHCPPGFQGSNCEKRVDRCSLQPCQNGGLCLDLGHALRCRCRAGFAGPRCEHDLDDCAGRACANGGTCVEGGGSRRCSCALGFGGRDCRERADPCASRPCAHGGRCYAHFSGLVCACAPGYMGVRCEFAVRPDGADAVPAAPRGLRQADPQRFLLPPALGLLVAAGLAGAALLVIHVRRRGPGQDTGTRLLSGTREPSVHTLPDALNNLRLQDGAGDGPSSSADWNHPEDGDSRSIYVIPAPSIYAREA
Description: as §1

B1: 7-I1-B (antibody, V domains shown)
VH: EVQLVESGGGLVKPGGSLRLSCAASGFTFSNTWMSWVRQAPGKGLEWVGRIKSKSDGGTTDYAAPVKGRFTISRDDSKNTLYLQMNSLKTEDTAVYYCTQYYWNSFDYWGQGTLVTVSS
VL: not shown
notes: also called 7-I1-B mAb
In the case of B1, the “ratio of the Mean Fluorescent Intensity for the monoclonal divided by the background staining with the 2nd stage” value [1] is reported as 18.7, the “FAB ZAP % SC16 Max Killing (NCI-H82 cells)” value (“FAB ZAP % SC16 Max Killing” for short) [2] is reported as 97 % SC16 Max Killing and the “Dy light Dy650 fluorescence in the quenching internalization assay on NCI-H82 cells (% of the Control Reference Monoclonal Antibody)” value [3] is reported as 70.1 % of the Control Reference Monoclonal Antibody. For the same binder, the “MFI Ratio (4°C / 37°C staining of NCI-H82 cells; relative measure of internalization)” value [4] was 1.68, the “ratio of the Mean Fluorescent Intensity for the monoclonal divided by the background staining with the 2nd stage” value [5] was 19.2 and the “ratio of the Mean Fluorescent Intensity for the monoclonal divided by the background staining with the 2nd stage” value [6] was 9.74. The “ratio of the Mean Fluorescent Intensity for the monoclonal divided by the background staining with the 2nd stage” value [7] was 4.7.

B2: 10-O18-A (antibody, V domains shown)
VH: QVQLQESGPGLVKPSETLSLTCTVSGGSINSYYWSWIRQPPGKGLEWIGYIFYSGITNYNPSLKSRVTISLDTSKNQFSLKLSSVTAADTAVYYCARIGVAGFYFDYWGQGTLVTVSS
VL: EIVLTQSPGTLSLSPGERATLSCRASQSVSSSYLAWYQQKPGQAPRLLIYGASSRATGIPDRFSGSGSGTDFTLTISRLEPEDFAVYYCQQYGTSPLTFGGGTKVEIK
notes: Hybridoma monoclonal from Ablexis AlivaMAb Kappa mice; it was captured on anti-mouse Fc sensors and detected with anti-mouse IgG / anti-mouse IgG1 reagents; also called 10-O18-A monoclonal antibody
With B2 the “ratio of the Mean Fluorescent Intensity for the monoclonal divided by the background staining with the 2nd stage” value [1] was 9.85, the “MFI Ratio (4°C / 37°C staining of NCI-H82 cells; relative measure of internalization)” value [4] was 1.56 and the “ratio of the Mean Fluorescent Intensity for the monoclonal divided by the background staining with the 2nd stage” value [5] was 9.4. The “ratio of the Mean Fluorescent Intensity for the monoclonal divided by the background staining with the 2nd stage” value [6] was 4.74 and the “ratio of the Mean Fluorescent Intensity for the monoclonal divided by the background staining with the 2nd stage” value [7] was 0.99.

B3: 6-G23-F (antibody, V domains shown)
VH: QVQLVQSGAEVKKPGASVKVSCKASGYTFTSYYIHWVRQAPGQGLEWMGIIDPSDGSTNYAQKFQGRVTMTRDTSTSTVYMELSSLRSEDTAVYYCARDREYNYYGLDVWGQGTTVTVSS
VL: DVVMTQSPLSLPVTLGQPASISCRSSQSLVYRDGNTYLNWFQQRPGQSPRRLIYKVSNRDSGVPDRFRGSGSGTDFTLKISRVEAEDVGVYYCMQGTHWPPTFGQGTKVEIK
notes: also called 6-G23-F monoclonal antibody
For B3, the “ratio of the Mean Fluorescent Intensity for the monoclonal divided by the background staining with the 2nd stage” value [1] was 13.1, the “FAB ZAP % SC16 Max Killing” value [2] was 94 % SC16 Max Killing and the “Dy light Dy650 fluorescence in the quenching internalization assay on NCI-H82 cells (% of the Control Reference Monoclonal Antibody)” value [3] was 76.5 % of the Control Reference Monoclonal Antibody. The “MFI Ratio (4°C / 37°C staining of NCI-H82 cells; relative measure of internalization)” value [4] was 1.67, the “ratio of the Mean Fluorescent Intensity for the monoclonal divided by the background staining with the 2nd stage” value [5] was 11.1 and the “ratio of the Mean Fluorescent Intensity for the monoclonal divided by the background staining with the 2nd stage” value [6] was 6.33. For the same binder, the “ratio of the Mean Fluorescent Intensity for the monoclonal divided by the background staining with the 2nd stage” value [7] was 3.97.

B4: 2-C8-A (antibody, V domains shown)
VH: EVQLVESGGGLVQPGGSQRLSCAASGFTFSSYWMNWVRQAPGKGLEWVANIKEDGSEKYYVDSVKGRFTISRDNAKNSLYLQMNSLRAEDTAVYYCARDPGWAPFDYWGQGTLVTVSS
VL: DIQMSQSPSSLSASVGDRVTITCRASQGISNYLAWFQQKPGKAPKSLIYAASSLQSGVPSKFSGSGSGTDFTLAISSLQPEDFATYYCQQYNSFPYTFGQGTTLEIK
notes: also called 2-C8-A monoclonal antibody
For B4, the “ratio of the Mean Fluorescent Intensity for the monoclonal divided by the background staining with the 2nd stage” value [1] was 15, the “FAB ZAP % SC16 Max Killing” value [2] was 89 % SC16 Max Killing and the “Dy light Dy650 fluorescence in the quenching internalization assay on NCI-H82 cells (% of the Control Reference Monoclonal Antibody)” value [3] was 62.9 % of the Control Reference Monoclonal Antibody. For the same binder, the “MFI Ratio (4°C / 37°C staining of NCI-H82 cells; relative measure of internalization)” value [4] was 1.76, the “ratio of the Mean Fluorescent Intensity for the monoclonal divided by the background staining with the 2nd stage” value [5] was 11.9 and the “ratio of the Mean Fluorescent Intensity for the monoclonal divided by the background staining with the 2nd stage” value [6] was 7.71. The “ratio of the Mean Fluorescent Intensity for the monoclonal divided by the background staining with the 2nd stage” value [7] was 1.5.

Reference: patent US20240115720A1 (Memorial Sloan Kettering, published 2024)
